In article PMC12990809 one finds binding signal (z-score (mean of top ten 7-mers)) data, which are given here for nine substances.

Assay in all cases: pulldown
For data set [1], the target named is T1, rbm47 (Xenopus tropicalis) (UniProt A0A8J0QCA8).
T1 sequence: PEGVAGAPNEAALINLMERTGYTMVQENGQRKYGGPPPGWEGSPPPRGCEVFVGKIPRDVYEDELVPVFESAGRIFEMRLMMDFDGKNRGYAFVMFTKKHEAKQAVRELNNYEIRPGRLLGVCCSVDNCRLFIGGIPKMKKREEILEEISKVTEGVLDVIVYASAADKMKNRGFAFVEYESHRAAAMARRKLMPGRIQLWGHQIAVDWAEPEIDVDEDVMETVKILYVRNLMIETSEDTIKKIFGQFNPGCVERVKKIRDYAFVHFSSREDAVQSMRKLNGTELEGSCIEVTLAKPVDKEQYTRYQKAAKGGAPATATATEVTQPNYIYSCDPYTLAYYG
To be noted: 20 nM protein, 1.5 uM RNA pool; 20 mM HEPES pH 7.8, 70 mM KCl, 10 mM NaCl, 10% glycerol, 2 mM DTT, 0.1 ug/uL BSA; 30 min, 4 C (protocol of this paper; not …); cited from earlier work.

Data set [2] has as its target T2, rnp-2 (Caenorhabditis elegans) (UniProt Q21322).
T2 sequence: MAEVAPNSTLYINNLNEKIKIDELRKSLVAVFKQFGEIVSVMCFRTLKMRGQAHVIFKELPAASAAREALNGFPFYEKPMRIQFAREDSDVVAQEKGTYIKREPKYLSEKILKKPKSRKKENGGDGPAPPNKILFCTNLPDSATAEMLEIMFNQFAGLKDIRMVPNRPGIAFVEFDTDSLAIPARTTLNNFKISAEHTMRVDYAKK
The conditions noted are these: 20 nM protein, 1.5 uM RNA pool; 20 mM HEPES pH 7.8, 70 mM KCl, 10 mM NaCl, 10% glycerol, 2 mM DTT, 0.1 ug/uL BSA; 30 min, 4 C.

In data set [3] the target is T3, CBG13971 (Caenorhabditis briggsae) (UniProt A8XIX4).
T3 sequence: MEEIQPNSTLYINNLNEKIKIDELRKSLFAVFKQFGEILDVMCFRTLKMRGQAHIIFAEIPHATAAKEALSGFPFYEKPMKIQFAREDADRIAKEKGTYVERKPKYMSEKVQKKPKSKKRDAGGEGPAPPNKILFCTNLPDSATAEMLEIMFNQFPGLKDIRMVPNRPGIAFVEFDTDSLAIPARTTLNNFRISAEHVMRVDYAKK
The conditions noted are these: 20 nM protein, 1.5 uM RNA pool; 20 mM HEPES pH 7.8, 70 mM KCl, 10 mM NaCl, 10% glycerol, 2 mM DTT, 0.1 ug/uL BSA; 30 min, 4 C.

The target of a further data set is T4, rbm38 (Danio rerio) (UniProt A0A8M1NF18).
T4 sequence: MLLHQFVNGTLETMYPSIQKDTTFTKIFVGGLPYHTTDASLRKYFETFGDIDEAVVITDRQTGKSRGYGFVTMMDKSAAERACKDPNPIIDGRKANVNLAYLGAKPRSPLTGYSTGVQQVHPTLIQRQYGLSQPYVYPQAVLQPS
To be noted: 20 nM protein, 1.5 uM RNA pool; 20 mM HEPES pH 7.8, 70 mM KCl, 10 mM NaCl, 10% glycerol, 2 mM DTT, 0.1 ug/uL BSA; 30 min, 4 C (protocol of this paper; not …); cited from earlier work.

Another data set deals with T5, A1CF (Gallus gallus) (UniProt A0A8V0ZPX5).
T5 sequence: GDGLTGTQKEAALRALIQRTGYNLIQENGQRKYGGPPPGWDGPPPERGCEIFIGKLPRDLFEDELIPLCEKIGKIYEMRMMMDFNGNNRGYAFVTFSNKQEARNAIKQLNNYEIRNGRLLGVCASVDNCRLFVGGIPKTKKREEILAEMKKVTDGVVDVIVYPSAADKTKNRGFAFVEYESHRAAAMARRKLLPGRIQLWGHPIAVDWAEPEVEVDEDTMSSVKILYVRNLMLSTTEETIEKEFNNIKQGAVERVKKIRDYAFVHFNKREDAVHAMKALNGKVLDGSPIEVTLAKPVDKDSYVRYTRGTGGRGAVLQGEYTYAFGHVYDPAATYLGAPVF
To be noted: 20 nM protein, 1.5 uM RNA pool; 20 mM HEPES pH 7.8, 70 mM KCl, 10 mM NaCl, 10% glycerol, 2 mM DTT, 0.1 ug/uL BSA; 30 min, 4 C (protocol of this paper; not …); cited from earlier work.

Data set [4] has as its target T6, Y69A2AR.32 L314S (Caenorhabditis elegans) (UniProt H2L0S1).
T6 sequence: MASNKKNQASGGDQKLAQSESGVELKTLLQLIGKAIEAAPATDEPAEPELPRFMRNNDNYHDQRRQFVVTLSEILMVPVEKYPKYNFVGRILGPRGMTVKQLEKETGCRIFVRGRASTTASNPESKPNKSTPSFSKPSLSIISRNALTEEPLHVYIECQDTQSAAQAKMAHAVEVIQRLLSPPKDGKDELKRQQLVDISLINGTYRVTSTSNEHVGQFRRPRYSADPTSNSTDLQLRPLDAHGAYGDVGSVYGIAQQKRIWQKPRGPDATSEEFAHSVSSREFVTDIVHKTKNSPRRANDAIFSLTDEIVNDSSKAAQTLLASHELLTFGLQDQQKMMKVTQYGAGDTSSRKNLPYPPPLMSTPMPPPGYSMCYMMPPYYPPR
The conditions noted are these: 20 nM protein, 1.5 uM RNA pool; 20 mM HEPES pH 7.8, 70 mM KCl, 10 mM NaCl, 10% glycerol, 2 mM DTT, 0.1 ug/uL BSA; 30 min, 4 C.

The target of data set [5] is T7, rbm24a (Tetraodon nigroviridis) (UniProt H3CUV7).
T7 sequence: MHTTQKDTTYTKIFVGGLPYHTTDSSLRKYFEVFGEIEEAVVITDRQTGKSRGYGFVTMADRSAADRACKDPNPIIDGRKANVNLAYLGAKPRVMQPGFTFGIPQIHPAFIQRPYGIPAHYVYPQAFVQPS
The conditions noted are these: 20 nM protein, 1.5 uM RNA pool; 20 mM HEPES pH 7.8, 70 mM KCl, 10 mM NaCl, 10% glycerol, 2 mM DTT, 0.1 ug/uL BSA; 30 min, 4 C (protocol of this paper; not …); cited from earlier work.

Data set [6] has as its target T8, csx1 (Schizosaccharomyces pombe) (UniProt O13759).
T8 sequence: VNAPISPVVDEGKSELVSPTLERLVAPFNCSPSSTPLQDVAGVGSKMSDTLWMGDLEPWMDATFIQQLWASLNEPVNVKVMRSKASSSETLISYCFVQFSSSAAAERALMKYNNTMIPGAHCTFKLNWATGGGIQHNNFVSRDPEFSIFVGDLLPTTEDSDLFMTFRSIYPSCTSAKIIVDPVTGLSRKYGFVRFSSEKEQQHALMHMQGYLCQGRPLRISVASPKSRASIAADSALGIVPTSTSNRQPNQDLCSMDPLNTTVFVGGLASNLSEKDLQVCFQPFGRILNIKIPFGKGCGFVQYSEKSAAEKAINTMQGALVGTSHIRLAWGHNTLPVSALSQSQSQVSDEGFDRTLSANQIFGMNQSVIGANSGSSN
The conditions noted are these: 20 nM protein, 1.5 uM RNA pool; 20 mM HEPES pH 7.8, 70 mM KCl, 10 mM NaCl, 10% glycerol, 2 mM DTT, 0.1 ug/uL BSA; 30 min, 4 C.

Data set [7] deals with T9, PK03611.1 N266D (Cannabis sativa) (UniProt A0A7J6FG33).
T9 sequence: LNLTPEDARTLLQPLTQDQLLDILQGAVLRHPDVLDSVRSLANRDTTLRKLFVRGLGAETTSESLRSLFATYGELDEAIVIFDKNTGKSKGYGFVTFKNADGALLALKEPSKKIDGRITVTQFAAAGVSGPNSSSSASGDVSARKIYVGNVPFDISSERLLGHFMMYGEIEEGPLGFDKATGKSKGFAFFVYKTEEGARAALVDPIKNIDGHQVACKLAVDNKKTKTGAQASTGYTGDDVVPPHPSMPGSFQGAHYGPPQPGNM
To be noted: 20 nM protein, 1.5 uM RNA pool; 20 mM HEPES pH 7.8, 70 mM KCl, 10 mM NaCl, 10% glycerol, 2 mM DTT, 0.1 ug/uL BSA; 30 min, 4 C.

On to GAUGAUU [RNAcompete motif RNCMPT00280], for which the binding signal (z-score (mean of top ten 7-mers)) in data set [1] is 7.8. Take GCACUU [RNAcompete motif RNCMPT00301]: the binding signal (z-score (mean of top ten 7-mers)) in data set [2] was determined as 27. Take GCACUU [RNAcompete motif RNCMPT00323]: in data set [3], the binding signal (z-score (mean of top ten 7-mers)) was found to be 11.2. As to GUGUGUG [RNAcompete motif RNCMPT00283], the binding signal (z-score (mean of top ten 7-mers)) with rbm38 (Danio rerio) was 9.92. As to UAAUUG [RNAcompete motif RNCMPT00291], the binding signal (z-score (mean of top ten 7-mers)) with A1CF (Gallus gallus) was 12.

For the substance UACUNG [RNAcompete motif RNCMPT00324], the binding signal (z-score (mean of top ten 7-mers)) in data set [4] was found to be 22.8. Regarding UGUGUG [RNAcompete motif RNCMPT00285], the binding signal (z-score (mean of top ten 7-mers)) in data set [5] was 10.2.

Regarding UGUUUU [RNAcompete motif RNCMPT00325], in [6], the binding signal (z-score (mean of top ten 7-mers)) was determined as 9.34. Take UUAUGUG [RNAcompete motif RNCMPT00326]: the binding signal (z-score (mean of top ten 7-mers)) in data set [7] came out at 8.16.
